The labels stand for the following.
B2: recombinant KLHL12^6xHis (natural protein, UniProt Q53G59 1-568, looked up)
chain: MGGIMAPKDIMTNTHAKSILNSMNSLRKSNTLCDVTLRVEQKDFPAHRIVLAACSDYFCAMFTSELSEKGKPYVDIQGLTASTMEILLDFVYTETVHVTVENVQELLPAACLLQLKGVKQACCEFLESQLDPSNCLGIRDFAETHNCVDLMQAAEVFSQKHFPEVVQHEEFILLSQGEVEKLIKCDEIQVDSEEPVFEAVINWVKHAKKEREESLPNLLQYVRMPLLTPRYITDVIDAEPFIRCSLQCRDLVDEAKKFHLRPELRSQMQGPRTRARLGANEVLLVVGGFGSQQSPIDVVEKYDPKTQEWSFLPSITRKRRYVASVSLHDRIYVIGGYDGRSRLSSVECLDYTADEDGVWYSVAPMNVRRGLAGATTLGDMIYVSGGFDGSRRHTSMERYDPNIDQWSMLGDMQTAREGAGLVVASGVIYCLGGYDGLNILNSVEKYDPHTGHWTNVTPMATKRSGAGVALLNDHIYVVGGFDGTAHLSSVEAYNIRTDSWTTVTSMTTPRCYVGATVLRGRLYAIAGYDGNSLLSSIECYDPIIDSWEVVTSMGTQRCDAGVCVLREK

The target of the assay “recombinant KLHL12^6xHis” is B2. Put plainly: pull-down.
For a further assay, the target named is recombinant CUL3/RBX1 (UniProt Q13618 1-768; P62877 1-108). In words: pull-down.
Sequence of recombinant CUL3/RBX1 (Q13618 whole entry, chain 1 of 2): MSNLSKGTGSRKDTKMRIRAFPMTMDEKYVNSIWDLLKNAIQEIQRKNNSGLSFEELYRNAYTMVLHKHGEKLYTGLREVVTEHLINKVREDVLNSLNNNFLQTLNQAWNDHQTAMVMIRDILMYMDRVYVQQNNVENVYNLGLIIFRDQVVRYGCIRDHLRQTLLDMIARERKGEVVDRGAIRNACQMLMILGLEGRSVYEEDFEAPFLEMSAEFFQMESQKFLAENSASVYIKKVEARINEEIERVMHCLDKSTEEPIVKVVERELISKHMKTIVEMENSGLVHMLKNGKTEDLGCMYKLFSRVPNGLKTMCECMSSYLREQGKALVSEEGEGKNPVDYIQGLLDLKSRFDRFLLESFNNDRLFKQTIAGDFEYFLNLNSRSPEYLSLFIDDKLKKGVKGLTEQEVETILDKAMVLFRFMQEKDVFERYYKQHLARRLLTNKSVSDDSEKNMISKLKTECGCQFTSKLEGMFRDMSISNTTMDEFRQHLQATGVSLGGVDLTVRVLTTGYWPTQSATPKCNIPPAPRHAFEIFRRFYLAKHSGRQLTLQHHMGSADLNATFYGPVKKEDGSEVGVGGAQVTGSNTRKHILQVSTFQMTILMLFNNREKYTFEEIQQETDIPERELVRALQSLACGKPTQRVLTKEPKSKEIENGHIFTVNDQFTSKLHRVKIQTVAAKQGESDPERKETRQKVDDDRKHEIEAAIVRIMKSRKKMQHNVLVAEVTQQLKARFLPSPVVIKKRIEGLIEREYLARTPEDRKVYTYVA
Sequence of recombinant CUL3/RBX1 (P62877 whole entry, chain 2 of 2): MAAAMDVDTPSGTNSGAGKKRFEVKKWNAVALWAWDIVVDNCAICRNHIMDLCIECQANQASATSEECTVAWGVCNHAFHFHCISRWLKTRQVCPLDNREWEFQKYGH

B1: recombinant PEF1 (natural protein, UniProt Q9UBV8 1-284, looked up)
chain: MASYPYRQGCPGAAGQAPGAPPGSYYPGPPNSGGQYGSGLPPGGGYGGPAPGGPYGPPAGGGPYGHPNPGMFPSGTPGGPYGGAAPGGPYGQPPPSSYGAQQPGLYGQGGAPPNVDPEAYSWFQSVDSDHSGYISMKELKQALVNCNWSSFNDETCLMMINMFDKTKSGRIDVYGFSALWKFIQQWKNLFQQYDRDRSGSISYTELQQALSQMGYNLSPQFTQLLVSRYCPRSANPAMQLDRFIQVCTQLQVLTEAFREKDTAVQGNIRLSFEDFVTMTASRML
For B1, in the assay with recombinant KLHL12^6xHis, the binding result was “binds”.

For the molecule B2, in the assay with recombinant CUL3/RBX1, the binding result is reported as “binds”.
